Measured values published in paper PMC8073111.

How the values were obtained:
[1] = target: T1, C-myc-CCR4-RLuc8 (human) (UniProt P51679)
T1 sequence: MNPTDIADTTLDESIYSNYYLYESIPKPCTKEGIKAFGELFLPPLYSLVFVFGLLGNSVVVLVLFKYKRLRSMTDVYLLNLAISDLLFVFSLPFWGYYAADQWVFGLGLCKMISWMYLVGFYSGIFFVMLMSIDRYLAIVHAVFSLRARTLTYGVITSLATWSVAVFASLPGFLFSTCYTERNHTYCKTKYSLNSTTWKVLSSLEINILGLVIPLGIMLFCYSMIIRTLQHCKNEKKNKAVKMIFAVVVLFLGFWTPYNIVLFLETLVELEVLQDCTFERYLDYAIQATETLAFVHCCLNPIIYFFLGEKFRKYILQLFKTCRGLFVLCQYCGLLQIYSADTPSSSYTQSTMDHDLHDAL

[2] = target: C-myc-CCR7-RLuc8 (human) (UniProt P32248); conditions: scale: pEC50
UniProt P32248, sequence (P32248 25-378): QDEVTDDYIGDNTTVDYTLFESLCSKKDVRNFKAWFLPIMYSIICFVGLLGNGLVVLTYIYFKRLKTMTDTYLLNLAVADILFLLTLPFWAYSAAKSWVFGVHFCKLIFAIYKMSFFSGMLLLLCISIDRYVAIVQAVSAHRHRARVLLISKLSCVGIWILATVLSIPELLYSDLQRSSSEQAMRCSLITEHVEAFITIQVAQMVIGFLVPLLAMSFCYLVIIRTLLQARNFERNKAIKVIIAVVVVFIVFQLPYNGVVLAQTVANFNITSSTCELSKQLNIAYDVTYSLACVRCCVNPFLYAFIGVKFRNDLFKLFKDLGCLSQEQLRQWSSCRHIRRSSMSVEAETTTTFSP

[3] = target: C-myc-CCR7-RLuc8 (human) (UniProt P32248)
[4] = target: T2, C-myc-CCR10-RLuc8 (human) (UniProt P46092)
T2 sequence: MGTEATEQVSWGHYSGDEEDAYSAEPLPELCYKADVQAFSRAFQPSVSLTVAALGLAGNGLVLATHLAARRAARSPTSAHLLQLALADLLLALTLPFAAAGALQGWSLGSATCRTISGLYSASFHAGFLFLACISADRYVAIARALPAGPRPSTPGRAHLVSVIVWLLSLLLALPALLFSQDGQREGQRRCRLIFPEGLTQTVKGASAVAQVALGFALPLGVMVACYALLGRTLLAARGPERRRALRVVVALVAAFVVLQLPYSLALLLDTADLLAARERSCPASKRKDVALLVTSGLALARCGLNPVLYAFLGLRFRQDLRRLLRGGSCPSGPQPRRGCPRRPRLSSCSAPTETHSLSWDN

A β-arrestin2 recruitment to CCR4 (BRET): Emax relative to CCL22 [1] of 28% was found for “CC chemokine ligand 17 (CCL17) (from UniProt Q92583 24-94)” in this work.

A β-arrestin2 recruitment to CCR7 (BRET): pEC50 as printed in the text, assuming the same Emax value (differs from Table 1) [2] of 6.7, a G protein activation via CCR7: Emax relative to CCL19 [3] of 103% and a cAMP inhibition via CCR7: Emax relative to CCL19 [3] of 99% were found for “CCL21 (from UniProt O00585 24-134) (ligand)” in this work.

B1: CCL28(4-108) (ligand)
chain: ILPIASSCCTEVSHHISRRLLERVNMCRIQRADGDCDLAAVILHVKRRRICVSPHNHTVKQWMKVQAAKKNGKGNVCHRKKHHGKRNSNRAHQGKHETYGHKTPY
A G protein activation via CCR10: maximum signal observed relative to the Emax of CCL27; curve not saturated [4] of 80%, an NFAT Ca2+ reporter via CCR10: Emax relative to CCL27 [4] of 106% and a cAMP inhibition via CCR10: maximum signal observed relative to the Emax of CCL27; curve not saturated [4] of 64% were found for B1 in this work. For the same molecule, the β-arrestin2 recruitment to CCR10 (BRET): maximum signal observed relative to the Emax of CCL27; curve not saturated, potency ND [4] was 82%.
